These results are taken from the nanobody polyreactivity screen of Harvey et al. (2022).

The data set in a line: yeast display, Sf9 membrane polyspecificity reagent, FACS + sequencing; frameworks hold sequencing errors. In outline: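 Synthetic nanobody libraries on Saccharomyces cerevisiae BJ5465 were galactose-induced for 36–48 hours, stained 1 hour at 4 °C with 10% biotinylated, detergent-solubilized Sf9 membrane reagent and enriched on streptavidin microbeads. FACS then separated cells into low and high (top ~1%) gates by anti-HA (expression) and streptavidin (reagent binding) fluorescence. Genes were colony-PCR amplified, MiSeq 2 × 250 sequenced and CDR-length filtered. A clone's polyreactivity label is that of its gate of origin.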
Consider “QVQLVESGGGLVQEGGSLRLRWAASGFIFDTYAMGWYRQAPGKERELVAGISDGGSTYYADSVKGRFTISRDNAKNTVYLQLNSLKPEDTAVYYCAAQGEYGFTAYYPGVSWGQGTQVTLSS”, for which the “polyreactivity (PSR sort gate)” value is on record as “low polyreactivity”.
The entry for “QVQLVESGGGLVQEGGSLRLSCAASGFIVNRYAMGWYRQAPGKERELVAAITGSGSRTYYADSVKGRFTISRDNAKNTVYLHMNSLKPEATAVYYCNTDRRPTADFGYWGQGTQVTVAS” is “high polyreactivity”; for “QVQLVESGGGLVQEGGSLRLSCAASGFTFARYAMGWYRQSPGKERELVARISSRGGSTNFADSVKGRFTISRDNAKNTVYLQMNSLKPEDTAVYYCAKYYSSKYYYWGQGTQVTVSS” it is “high polyreactivity”; for “QVQLVESGGGLVQEGGSLRLSCAASGFTLYGYTMGWYRQAPGKERELVAAISGSGGRTYYADSVKGRFTISRDNAKNTVYLQMNSLKPEVTEVYYCAADSRGTWYGYDYWGQGTQVTVSS” it is “high polyreactivity”.
For “QVQLVESGGGLVQEGGSLRLSCAASGGIFFPNAMGWYRQAPGKERELVAAISWSAGSTYYADSVKGRFTISRDNAKNTVYLQMKSLKPEDTAVYYCAAAGSNYTVWFGYYYWGQVTQVTVSS”, the “polyreactivity (PSR sort gate)” value is listed as “low polyreactivity”.
The entry for “QVQLVESGGGLVQEGGSLRLSCAASGGIFGEYDMGGYRQAPGKERELVAAINWSGGSTYYADSVKGRFTISRDNAKNSVYLQMNSLKPEDTAVYYSAADRGYPRKVDYWGQVTQVTVSS” is “low polyreactivity”.
Next, “QVQLVESGGGLVQEGGSLRLSCAASGGIFSAYAMGWYRQAPGKERELVAAISRTGGSTYYADSVKGRFTISRDNAKITVYLQMTSLKPEDTAVYYCNADYRRYPEFDYWGQGTQVTVSS”: “high polyreactivity”.
Next, “QVQLVESGGGLVQEGGSLRLSCAASGGTFAYAMGWYRQAPGKERELVAAITWRGGDTYADSVKGRFTISRDNAKNTVYLQMNSLKPEDTAVYYCAAEFRDVSSNGYDYWGQGTQVTVSS”: “low polyreactivity”; “QVQLVESGGGLVQEGGSLRLSCAASGGTFYAYTMGWYRPAPGTERELVAAISRSGGSTYYADSVKGRITISRDTAKNSVYLQINSLKPEDTAVYYCAAVESGADYYYWGQGTQVTVSS”: “high polyreactivity”.
“QVQLVESGGGLVQEGGSLRLSCAASGIIFPVYDMGWYRQAPGKERELVASITDSGGSTSYADSVKGRFTLSRDNAKNTVYLQMNSLKPEDTAVYYCAVTDSDTNYYGYLSYDYWGQGTQVTVSS”: the “polyreactivity (PSR sort gate)” value is listed as “low polyreactivity”.
Next, “QVQLVESGGGLVQEGGSLRLSCAASGIIFRWYAMGWYRQAPGKERELVAAITSDGNTYYADSVKGRFTISRDNAKNTVYLQMNSLKPVDTAVYYCAARLSYYSRMNYWGQGTQVTVSS”: “high polyreactivity”; “QVQLVESGGGLVQEGGSLRLSCAASGILVYNAMGWYRQAPGTERELVAAISARGGRTYYADSVKGRFTISRDNAQNTDSLQMNSLKPEDTAVYYCASRSSKSRTYDYWGQGTQVTVSS”: “high polyreactivity”.
For “QVQLVESGGGLVQEGGSLRLSCAASGITFSRNAMGWYRPAPGKERELVATITSGGSTNYADSVKGRFTISRDNAKNNVYLQMNSLKPEDTAVYYCNAVWNTFISGRSYDYWGQGTQVTVSS”, the “polyreactivity (PSR sort gate)” value is on record as “low polyreactivity”.
The entry for “QVQLVESGGGLVQEGGSLRLSCAASGLIFGAYALGWYRQAPGKERELVAAISGRGGSTYYADSVKGRFTISHDNAKNTVYLQMNSLKPEDNAVYYCAAPWRYTYYYWGQGTQVTVSS” is “high polyreactivity”; for “QVQLVESGGGLVQEGGSLRLSCAASGLIFNRYDMGWYRQAPGKVTELVAAITSRGGRTYYADSVKGRFTISLDNAKTTVYLQMNSLKPEDTAVYYCNRTPTGSSLYGMDYWGQGTQVTVSS” it is “high polyreactivity”.
The entry for “QVQLVESGGGLVQEGGSLRLSCAASGLIFSYYAMGWYRQAPGKERELVAAISWSGASTFYADSVKGRFTISRDNAKNTVYLQMNSLKPEDTAVYYCAADTYGKTYYYWGQGTLVTVSS” is “low polyreactivity”; for “QVQLVESGGGLVQEGGSLRLSCAASGLTFPYYAMGWYRQAPGKERELVAGISDSGGSTYYADSVKGRFTISRDNAKNTVYVQMNSLKPEDTAVYYCAAQGVDSYYENVYWGQGSQVTVSS” it is “high polyreactivity”.
In the case of “QVQLVESGGGLVQEGGSLRLSCAASGRIFPYYAMGWYRQAPGKERELVAAITSGSRTYYADSVKGRFTISRDNAKNTVYLQMNSLKPEHTAVYYCNAVGGNSAYVYWGQGTQVTVSS”, the “polyreactivity (PSR sort gate)” value is “high polyreactivity”.
For the sequence “QVQLVESGGGLVQEGGSLRLSCAASGRIFQWNAMGWYRQAPGKERELVATISSRGGSTYYADSVKGRFTISRDNAKNTVYLQMNSLKPEDTAVYYCAARYYAKYRSYDYWGQGTQVTVSS”, the “polyreactivity (PSR sort gate)” value was “high polyreactivity”.
Next, “QVQLVESGGGLVQEGGSLRLSCAASGRIFRRYTMGWYRQAPGKERELVAVITSGGNTHYADSVKGRFTISRDNAKNTVYLQMNSLKPEDTAVYYCAARHYRGSNDYWGQGTQVTVSS”: “high polyreactivity”; “QVQLVESGGGLVQEGGSLRLSCAASGRIFWSYAMGWYRQAPGKERELVAAITWRTGRTYYADSVKGRFTISRDNAKNTVYLQMNSLKPEDTAVYYCAAEGYLGGQSYNGLNYDSWGQGTQVTVSS”: “low polyreactivity”.
“QVQLVESGGGLVQEGGSLRLSCAASGRTFGYYVMGWYRQAPGKERELVAAISNTDSTYYADSVKGRFTISRDNAKNSVYLQMNSLKPEDTAVYYCDKDGRTVAYTWTRTHYYWGQGTQVTVSS”: the “polyreactivity (PSR sort gate)” value is on record as “low polyreactivity”.
For “QVQLVESGGGLVQEGGSLRLSCAASGSIFVLYAMGWYRQAPGKERQLVAAINYEGASTYYADSVKGRFTISRDNAKITVYLQMNSLKPEDKAVFYCAARWQFNIDVQLYLFEYWGQGTQVTVSS”, the “polyreactivity (PSR sort gate)” value is reported as “low polyreactivity”.
Consider “QVQLVESGGGLVQEGGSLRLSCAASGSTFDSNAMGWYRQAPGTERELVAAIDWSGGSTYYADSVKGRFTISRDNAKNSVYLQMNSLKPEDTAVYYCAADDYSSNYGDFDYWGQGTQVTVSS”, for which the “polyreactivity (PSR sort gate)” value was “low polyreactivity”.
On to “QVQLVESGGGLVQEGGSLRLSCAASGSTFEYNAMGWDRQAPGKEREFVAAISRTGSRTYYADSVKGRFTISRDNAKNTVFLQMNSLIPEDTAVYYCASVKSRLQVGYYSWGQGTQVTVSS”, for which the “polyreactivity (PSR sort gate)” value was “high polyreactivity”.
Next, “QVQLVESGGGLVQEGGSLRLSCAASGSTFGVYSMGWYRQAPGKERELVAAISYTGGSTYYADSVKGRFTISRDNAKNSVYLQMNSLKPEDTGVFYCAVEVGYTDSPYSYDYWGEGTQVTVSS”: “low polyreactivity”; “QVQLVESGGGLVQEGGSLRLSCAASGSTFTTNVMGWYRQAPGKERELVAAISWSSGSTYYADSVTGRFTISRDNAKNTVYLQMNSLKPEDTAVYYCAARLVIFYPYSRYYYWGQGTQVTVSS”: “high polyreactivity”; “QVQLVESGGGLVQEGGSLRLSCAASGSTFTYYAMGWYRQAPGKERELVAAISRSGGNTYYADSVKGRFTISRDNAKNTVYLQMNSLKPEDTAVYYCAAYRQVYGFDYWGQGTQVTVSS”: “high polyreactivity”.
The entry for “QVQLVESGGGLVQEGGSLRLSCAASGSTFWGYAMGWYRQAPGKERELVATITTGGSTNYADSVKGRFTISRDNAKNTVYLQMNSLKPEDTAVYYCAAERLFRFWYSAYERYDYCGQGTQVTVSS” is “low polyreactivity”.
The entry for “QVQLVESGGGLVQEGGSLRLSCAASRRTFRLYVMGWYSQAPGKERELVAAITWRGRTTYYAHSVKGRFTISRDNAKNTVYLQMNSLKPEDTAVYYCATTRYPRSYQEFGYWGQGTQGTVSS” is “high polyreactivity”.
With “QVQLVESGGGLVQEGGSLRLSCAGSGRTFTFNVMGWYRQAPGKEREFVAAITGTDGSTYYADSVKGRFTISRDNAKNTVYLQMNSLKPEDTAVFYCAARYDWGYVDPGDYWGQGTQVTVSS”, the “polyreactivity (PSR sort gate)” value is “high polyreactivity”.
Next, “QVQLVESGGGLVQEGGSLRLSCAPSGRTFAKYAMGWYRQSPGKERELVAAITRGDTTNYADSVKGRFTISRDNAKNTVYLQMNSLKPEDTAVYYCAATPDPPHTYEYWGQGTQVTVSS”: “low polyreactivity”.
On to “QVQLVESGGGLVQEGGSVRFSCAASGSISKPNARGWYRQAAGKERELVASITRGGIPNYADSVKGRVTISRDNAKNTVYLQMNSLKPEDTAVYDCAAFYAYSKYSYNIRFYYWGQGTQVTVAS”, for which the “polyreactivity (PSR sort gate)” value was “high polyreactivity”.
“QVQLVESGGGLVQGGGSLRLSCAASGFIFDGNAMGWSRQAPGKEREFVASNSGSGDSTYYADSVKGRFTISRDNAKNTVYLQMNSLKPEDTAVYYCAYEGTPWASGNDYWGQGTQVTVSS”: the “polyreactivity (PSR sort gate)” value was “low polyreactivity”.
With “QVQLVESGGGLVQGGGSLRLSCAASGRTFAPNAMGWYRQAPGKERELVAAISYNSGTTYYADSVKGRFTISRDNAKNTVYLQMNSLKPEDTAVYYCAAGHWVGPYQAMEYWGQGTQVTVSS”, the “polyreactivity (PSR sort gate)” value was “high polyreactivity”.
On to “QVQLVESGGGLVQGGSLRLSCAASGFTFPIYVMGWSRHAPGKEMELVASISSVGSTNYADSVKGRFTISRDNSKNTVYLQMNSLKPEDTAVYYCNADDPNSYGGFDYWGQGTQVTVSS”, for which the “polyreactivity (PSR sort gate)” value is given as “low polyreactivity”.
The entry for “QVQLVESGGGLVQPGGILRLSCAASGYTFQVYAMGWYRQAPGKEREMVASIRWRGGRTYYADSVKGRFTISRDNAKNTVYLQMNSLKPEDTAVYYCAARQYVIYQTYYTYYYWGQGTQVSVSS” is “high polyreactivity”; for “QVQLVESGGGLVQPGGSLRISCAASASTFFPYAMGWYRQAPGKERELVAAITGSGGSTYYADSVKGRFTISRDNAKNTVYLQMNSLKPEDTAVYYCNAVWEYYGKSDYWGQGTQVTVSS” it is “low polyreactivity”; for “QVQLVESGGGLVQPGGSLRLIFAASGSIFHYNAIGWYTQAPGKEREFVAVISKSSGSTFYADSVKGRFTISRDNAKNTVYLQMNSLKPEDTAVYYCNLVTKRYPIIGNYWGQGSQVTVSS” it is “high polyreactivity”.
On to “QVQLVESGGGLVQPGGSLRLSCAASGFILYGNAMGWYRQAPGKERELVAAISRRGGSTYYADSVKGRFTISRDNAKNTVYLQMNSLKPEDTAVYYCAKDGPGGGTRIYDYWGQGTQVTVSS”, for which the “polyreactivity (PSR sort gate)” value was “high polyreactivity”.
“QVQLVESGGGLVQPGGSLRLSCAASGFTFRGYDMGWYRQAPGTERELVAGITWGDDSTYYADSVKGRFTISRDNAKNTVYLQMNSLKPEDTAVYYCATYFRVYYSQYDYWGEGTQVTVSS”: the “polyreactivity (PSR sort gate)” value is on record as “high polyreactivity”.
